Laboratory results as given in the supplement of paper PMC11908140.

B1: library; numbered along this chain (parent)
chain: MRKPRAAVGSGHRKQAASQEGRQKHAKNNSQAKPSACDGLARQPEEVVLQASVSSYHLFRDVAEVTAFRGSLLSWYDQEKRDLPWRRRAEDEMDLDRRAYAVWVSEVMLQQTQVATVINYYTGWMQKWPTLQDLASASLEEVNQLWAGLGYYSRGRRLQEGARKVVEELGGHMPRTAETLQQLLPGVGRYTAGAIASIAFGQATGVVDGNVARVLCRVRAIGADPSSTLVSQQLWGLAQQLVDPARPGDFNQAAMELGATVCTPQRPLCSQCPVESLCRARQRVEQEQLLASGSLSGSPDVEECAPNTGQCHLCLPPSEPWDQTLGVVNFPRKASRKPPREESSATCVLEQPGALGAQILLVQRPNSGLLAGLWEFPSVTWEPSEQLQRKALLQELQRWAGPLPATHLRHLGEVVHTFSHIKLTYQVYGLALEGQTPVTTVPPGARWLTQEEFHTAAVSTAMKKVFRVYQGQQPGTCMGSKRSQVSSPCSRKKPRMGQQVLDNFFRSHISTDAHSLNSAAQ

Variants of: B1
Experiment: 8OG:A repair function score (normalized; synonymous = 0, nonsense = -1) (normalized log-likelihood score); higher = more repair activity (WT-like)
Conditions: with 8OG:A DNA repair reporter (GFP) in HEK-293 MUTYH KO cells
In short: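 After 72 h, viable mCherry+ cells were split into GFP+ (repair) and GFP− bins in three replicates per tile. These cells were MUTYH knockout HEK-293 cells holding lentiviral MUTYH cDNA NNN codon-scan libraries, kept in 10 pg/ml doxycycline and co-transfected with mCherry plus an 8OG:A GFP repair reporter. Sequencing of tile amplicons gave per-tile Rosace fitness scores, normalized into a repair function score anchored on synonymous and nonsense distributions. Synonymous medians were fixed at 0, nonsense at -1, and variants under 300 counts per million at the start were removed.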
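Note: cells sorted at 72 h after reporter transfection.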

| Variant | 8OG:A repair function score |
| --- | --- |
| P34N | 0.0767 |
| A89R | -0.0424 |
| Q426I | -0.057 |
| A147C | -0.226 |
| A147K | -0.229 |
| Q111M | -1.12 |
| Q111E | -1.24 |
| D96M | -0.441 |
| A162Q | -0.953 |
| V485G | -0.0147 |
| A513T | 0.000215 |
| G193T | -0.169 |
| E79V | -0.000865 |
| E79I | 0.00691 |
| L180H | -1.24 |
| S486T | 0.0101 |
| A405L | -0.177 |
| I421N | -0.83 |
| I421G | -0.609 |
| E168V | -0.0341 |
| L373W | -0.229 |

| Variant | 8OG:A repair function score |
| --- | --- |
| L373I | -0.315 |
| Q182A | 0.0281 |
| Q472G | -0.000609 |
| K164W | -0.0721 |
| L145G | 0.0263 |
| D91R | 0.00216 |
| D91F | 0.00319 |
| D91S | -0.00182 |
| D91A | 0.0065 |
| R506W | -0.0815 |
| L501Q | 0.02 |
| L501E | 0.0149 |
| L501D | 0.00991 |
| Y469K | -0.326 |
| Y469N | -0.738 |
| P264T | -0.066 |
| A192N | -0.876 |
| E375I | -0.715 |
| E375M | -0.229 |
| G444M | -0.298 |
| P299M | -0.0166 |

| Variant | 8OG:A repair function score |
| --- | --- |
| C272D | -1.28 |
| C272E | -1.29 |
| W235C | -0.509 |
| D208F | -1.04 |
| K80R | -0.0152 |
| S136C | -0.0713 |
| K492T | -0.00293 |
| T436M | 0.186 |
| E140P | -0.438 |
| R175M | -0.155 |
| T260L | -0.00446 |
| T260F | -0.281 |
| C347Y | -0.846 |
| L289R | -0.0177 |
| E433I | 0.00922 |
| E433C | -0.179 |
| L73A | -0.307 |
| E64H | -0.0871 |
| E64V | -0.0293 |
| G209L | -0.534 |
| Y76C | -1.48 |

| Variant | 8OG:A repair function score |
| --- | --- |
| K337A | -0.0726 |
| K337I | -0.106 |
| K337C | -0.225 |
| Q265N | -0.0302 |
| Q265S | -0.0301 |
| G205R | -0.953 |
| S507N | -0.0395 |
| S507G | -0.00119 |
| L349Q | -1.83 |
| Y120F | -0.0973 |
| E45C | -0.0211 |
| S459A | -0.218 |
| L403N | -0.0773 |
| L403S | -0.428 |
| L403Y | -0.513 |
| Q363C | -0.306 |
| L229C | -0.201 |
| L183Q | 0.0196 |
| E46S | -0.0996 |
| V104R | -1.11 |
